The results in this text go back to PMC2923636 (Structure (London, England : 1993), 2009).

The target in this experiment is T1, AIRE-PHD1 P326L mutant (human, UniProt O43918 293-346, P326L).
T1 sequence (looked up): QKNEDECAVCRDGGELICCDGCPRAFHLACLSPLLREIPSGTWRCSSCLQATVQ
Put plainly: NMR titration.

Take ARTKQTARKST (peptide, UniProt P68431 2-12, looked up) [unmodified histone H3 peptide (residues 1-11)]: the binding result is “binds”.
